Experimental data as given in patent JP2005325133A (dated 2005).
cellulose membrane = not defined here

Legend:
[1] = target: T1, 13-mer peptide, amino acids 61-73 of HLA-DR β chain (DRB1*15011), SEQ ID NO 82 (human, reading uncertain); assay: SPOT peptide membrane
T1 construct: SPOT peptide on cellulose membrane (JERINI); also called 配列番号82; 61番目〜73番目
T1 peptide: Ac-WNSQKDILEQARA-{cellulose membrane}

[2] = target: T2, 13-mer peptide, amino acids 63-75 of HLA-DR β chain (DRB1*15011), SEQ ID NO 83 (human, reading uncertain); assay: SPOT peptide membrane, chemiluminescence (LumiImager)
T2 construct: SPOT peptide; also called 配列番号83; 63番目〜75番目
T2 peptide: Ac-SQKDILEQARAAV-{cellulose membrane}

[3] = target: T3, 13-mer peptide, amino acids 65-77 of HLA-DR β chain (DRB1*15011), SEQ ID NO 84 (human, reading uncertain); assay: as above
T3 construct: SPOT peptide; also called 配列番号84; 65番目〜77番目
T3 peptide: Ac-KDILEQARAAVDT-{cellulose membrane}

[4] = target: T4, HLA-DR DRB1*15011/DRA*0101 forcibly expressed on L cells (ATCC CCL-1) (human, UniProt P01903 26-254; P01911 30-266); assay: flow cytometry on transfected L cells
T4 construct: whole, on cells

[5] = target: T5, SEQ ID NO 48 (human); assay: peptide spot blot, chemiluminescence (LAS2000)
T5 construct: also called 配列番号48
T5 peptide: WNSQADLLEQRRA

[6] = target: T6, SEQ ID NO 49 (human); assay: peptide spot blot, chemiluminescence (LAS2000)
T6 construct: also called 配列番号49
T6 peptide: WNSQKALLEQRRA

[7] = target: T7, SEQ ID NO 50 (human); assay: peptide spot blot, chemiluminescence (LAS2000)
T7 construct: also called 配列番号50
T7 peptide: WNSQKDLLAQRRA

[8] = target: T8, SEQ ID NO 51 (human); assay: peptide spot blot, chemiluminescence (LAS2000)
T8 construct: also called 配列番号51
T8 peptide: WNSQKDLLEQRAA

[9] = target: T1, 13-mer peptide, amino acids 61-73 of …; assay: SPOT peptide membrane, chemiluminescence (LumiImager)
[10] = target: T9, SEQ ID NO 24 (human); assay: peptide spot blot, antibody 1 μg/mL, chemiluminescence (LAS2000)
T9 construct: One of 16 peptides covering the polymorphic variants of HLA-DR β chain 61-73; also called 配列番号24
T9 peptide: WNSQKDFLEDRRA

[11] = target: T10, SEQ ID NO 25 (human); assay: as above
T10 construct: One of 16 peptides covering the polymorphic variants of HLA-DR β chain 61-73; also called 配列番号25
T10 peptide: WNSQKDFLERRRA

[12] = target: T11, SEQ ID NO 26 (human); assay: as above
T11 construct: One of 16 peptides covering the polymorphic variants of HLA-DR β chain 61-73; also called 配列番号26
T11 peptide: WNSQKDFLEDERA

[13] = target: T12, SEQ ID NO 27 (human); assay: as above
T12 construct: One of 16 peptides covering the polymorphic variants of HLA-DR β chain 61-73; also called 配列番号27
T12 peptide: WNSQKDFLEQARA

[14] = target: T13, SEQ ID NO 28 (human); assay: as above
T13 construct: One of 16 peptides covering the polymorphic variants of HLA-DR β chain 61-73; also called 配列番号28
T13 peptide: WNSQKDILEDERA

[15] = target: T14, SEQ ID NO 29 (human); assay: as above
T14 construct: One of 16 peptides covering the polymorphic variants of HLA-DR β chain 61-73; also called 配列番号29
T14 peptide: WNSQKDILEQKRG

[16] = target: T15, SEQ ID NO 30 (human); assay: as above
T15 construct: One of 16 peptides covering the polymorphic variants of HLA-DR β chain 61-73; also called 配列番号30
T15 peptide: WNSQKDILEDRRA

[17] = target: T16, SEQ ID NO 31 (human); assay: as above
T16 construct: One of 16 peptides covering the polymorphic variants of HLA-DR β chain 61-73; also called 配列番号31
T16 peptide: WNSQKDILEDRRG

[18] = target: T17, SEQ ID NO 32 (human); assay: as above
T17 construct: One of 16 peptides covering the polymorphic variants of HLA-DR β chain 61-73; also called 配列番号32
T17 peptide: WNSQKDILEDKRA

[19] = target: T18, SEQ ID NO 33 (human); assay: as above
T18 construct: One of 16 peptides covering the polymorphic variants of HLA-DR β chain 61-73; also called 配列番号33
T18 peptide: WNSQKDILEQARA

[20] = target: T19, SEQ ID NO 34 (human); assay: as above
T19 construct: One of 16 peptides covering the polymorphic variants of HLA-DR β chain 61-73; also called 配列番号34
T19 peptide: WNSQKDLLEQRRA

[21] = target: T20, SEQ ID NO 35 (human); assay: as above
T20 construct: One of 16 peptides covering the polymorphic variants of HLA-DR β chain 61-73; also called 配列番号35
T20 peptide: WNSQKDLLEQARA

[22] = target: T21, SEQ ID NO 36 (human); assay: as above
T21 construct: One of 16 peptides covering the polymorphic variants of HLA-DR β chain 61-73; also called 配列番号36
T21 peptide: WNSQKDLLEQKRG

[23] = target: T22, SEQ ID NO 37 (human); assay: as above
T22 construct: One of 16 peptides covering the polymorphic variants of HLA-DR β chain 61-73; also called 配列番号37
T22 peptide: WNSQKDLLEDRRA

[24] = target: T23, SEQ ID NO 38 (human); assay: as above
T23 construct: One of 16 peptides covering the polymorphic variants of HLA-DR β chain 61-73; also called 配列番号38
T23 peptide: WNSQKDLLERRRA

[25] = target: T24, SEQ ID NO 39 (human); assay: as above
T24 construct: One of 16 peptides covering the polymorphic variants of HLA-DR β chain 61-73; also called 配列番号39
T24 peptide: WNSQKDLLEDERA

[26] = target: T25, SEQ ID NO 40 (human); assay: as above
T25 construct: also called 配列番号40
T25 peptide: WNSQKDALEQRRA

[27] = target: T26, SEQ ID NO 41 (human); assay: as above
T26 construct: also called 配列番号41
T26 peptide: WNSQKDLLEARRA

[28] = target: T27, SEQ ID NO 42 (human); assay: as above
T27 construct: also called 配列番号42
T27 peptide: WNSQKDLLEQARA

[29] = target: T28, SEQ ID NO 43 (human); assay: as above
T28 construct: also called 配列番号43
T28 peptide: WNSQKDLLEQRRG

[30] = target: T29, SEQ ID NO 44 (human); assay: as above
T29 construct: also called 配列番号44
T29 peptide: ANSQKDLLEQRRA

[31] = target: T30, SEQ ID NO 45 (human); assay: as above
T30 construct: also called 配列番号45
T30 peptide: WASQKDLLEQRRA

[32] = target: T31, SEQ ID NO 46 (human); assay: as above
T31 construct: also called 配列番号46
T31 peptide: WNAQKDLLEQRRA

[33] = target: T32, SEQ ID NO 47 (human); assay: as above
T32 construct: also called 配列番号47
T32 peptide: WNSAKDLLEQRRA

Measured: binding result

B1: human anti-HLA-DR monoclonal antibody HD4 (hybridoma HD4, FERM BP-7771) (antibody, V domains shown)
VH: EVQLLESGGGLVQPGGSLRLSCAASGFTFSSYAMTWVRQAPGKGLEWVSGISGGGDSTYYADSVKGRFTISRDNSKNTLYLQMNSLRAEDTAVYYCARDHGSGSYYPYWFDYWGQGTLVTVSS
VL: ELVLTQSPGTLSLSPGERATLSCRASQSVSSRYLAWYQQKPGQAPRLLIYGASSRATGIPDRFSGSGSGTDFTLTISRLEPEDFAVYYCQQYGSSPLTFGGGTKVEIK
notes: Human IgG with kappa light chain from a KM mouse hybridoma
binds: [1] | [2] | [3]

B2: human anti-HLA-DR monoclonal antibody HD8 (hybridoma HD8, FERM BP-7773) (antibody, V domains shown)
VH: QVQLQHSGPGLVKPSQTLSLTCAISGDSVSSNSASWNWIRQSPSRGLEWLGRTYYRSKWYNDYAVSVKSRIVINPDTSKNQFSLQLNSVTPEDTAVYYCARENFYGSETCHKKYYCYGMDVWGQGTTVTVSS
VL: AIQLTQSPSSLSASVGDRVTITCRASQGISSALAWYQQKPGKAPKLLIYDASSLESGVPSRFSGSGSGTDFTLTISSLQPEDFATYYCQQFNSFPLTFGGGTKVEIK
notes: as for B1
no binding (tested: 1μg/mL): [5] | [6] | [7] | [8]
not listed: [1]
binds: all other assays above
